Among the data in US5371006 are activity (% converted to RF II) values, retold here.

A value given as a limit tells only on which side of the number the result lay.

The data set relates to NotI restriction endonuclease (Nocardia otitidis-caviarum). The data set can be described thus: cleavage_in_vitro. The following applies: endonuclease contamination test; 200 units, 4 h, 37 C, NEBuffer 3 + BSA.

As to phiX174 RFI DNA, the activity (% converted to RF II) is less than 5.
